Patent EP3470428A1 (Numab Innovation AG, dated 2019)
Blank lines part the entries; values can stand above or below the binder they belong to.

Legend:
[1] = target: human PD-L1 expressed on cells (human, UniProt Q9NZQ7 19-290); experiment: cell-based or functional assay
[2] = target: T1, human CD137 expressed on cells (human, UniProt Q07011 24-255); experiment: cell-based or functional assay
[3] = target: T2, human serum albumin (human, UniProt P02768 25-609); experiment: SPR (Biacore T200); SA amine-coupled; pH 5.5
T2 construct: Amine-coupled to a CM5 chip; assay at pH 5.5; also called HSA; human SA

[4] = target: T3, biotinylated human PD-L1 (human, UniProt Q9NZQ7 19-238, limits assumed, biotinylated); experiment: competition ELISA; coated human B7.1 as competitor; biotinylated PD-L1 pre-incubated with inhibitor
T3 construct: also called biotinylated PD-L1

[5] = target: T3, biotinylated human PD-L1; experiment: competition ELISA; coated human PD-1 as competitor; biotinylated human PD-L1 pre-incubated with inhibitor
[6] = target: T1, human CD137 expressed on cells; experiment: cell-based or functional assay; remark: listed apart in the source
[7] = target: T1, human CD137 expressed on cells; experiment: cell-based or functional assay; remark: listed apart in the source
[8] = target: human PD-L1-Fc chimeric protein (human, UniProt Q9NZQ7 19-239); experiment: SPR (Biacore T200); PD-L1-Fc captured by anti-human Fc
[9] = target: T1, human CD137 expressed on cells; experiment: cell-based or functional assay; remark: listed apart in the source
[10] = target: T1, human CD137 expressed on cells; experiment: cell-based or functional assay; remark: listed apart in the source
[11] = target: T1, human CD137 expressed on cells; experiment: cell-based or functional assay; remark: listed apart in the source
[12] = target: T1, human CD137 expressed on cells; experiment: cell-based or functional assay; remark: listed apart in the source

IC50 (ng/ml), neutralization of PD-L1/PD-1 interaction, NFAT-luciferase reporter gene assay, with HSA [1]: 275 ng/mL | max. activation (%), NF-kB reporter gene, CHO-PD-L1; HSA: yes, 24h [2]: 369% | binding result [3]: binds
B1: PRO963 (= PRO1051): 38_02_A04 sc01 scDb-i/33-03-G02 sc01 scDb-o/19-01-H04-sc03 scFv (other)
chain: DIQMTQSPSSLSASVGDRVTITCQASQSINDYLAWYQQKPGKAPKLLIYKASTLASGVPSRFSGSGSGTDFTLTISSLQPEDFATYYCQQGYIITDIDNVFGTGTKVTVLGGGGGSQVQLQESGPGLVKPSETLSLTCKVSGFSFSNSYWICWIRQPPGKGLEWIGCTFVGSSDSTYYANWAKGRVTISVDSSKNQFSLKLSSVTAADTAVYYCARHPSDAVYGYANNLWGQGTLVTVSSGGGGSGGGGSGGGGSGGGGSIQMTQSPSSLSASVGDRVTITCQASQSINNVLAWYQQKPGKAPKLLIYRASTLASGVPSRFSGSGSGTDFTLTISSLQPEDFATYYCQSSYGNYGDFGTGTKVTVLGGGGGSQVQLQESGPGLVKPSETLSLTCKVSGFSFSSGYDMCWIRQPPGKGLEWIGCVVAGSVDITYYASWAKGRVTISVDSSKNQFSLKLSSVTAADTAVYYCARKDAYSDAFNLWGQGTLVTVSSGGGGSGGGGSIQMTQSPSSLSASVGDRVTITCQSSESVYSNNQLSWYQQKPGQPPKLLIYDASDLASGVPSRFSGSGSGTDFTLTISSLQPEDFATYYCAGGFSSSSDTAFGGGTKLTVLGGGGGSGGGGSGGGGSGGGGSEVQLVESGGGLVQPGGSLRLSCAASGFSLSSNAMGWVRQAPGKGLEYIGIISVGGFTYYASWAKGRFTISRDNSKNTVYLQMNSLRAEDTATYFCARDRHGGDSSGAFYLWGQGTLVTVSS
notes: Trispecific scTriabody (scDb-scFv): PD-L1 x CD137 x serum albumin

IC50 (ng/ml), neutralization of PD-L1/PD-1 interaction, NFAT-luciferase reporter gene assay [1]: 93.8 ng/mL | IC50 [4]: 0.029 µg/mL | IC50 [5]: 4.54 ng/mL
B2: PRO1059: 33-03-G02 IgG1 LC with 38_02_A04 sc01 scFV, PD-L1/CD137(scFv) silent Morrison (bispecific antibody)
light: DIQMTQSPSSLSASVGDRVTITCQASQSINDYLAWYQQKPGKAPKLLIYKASTLASGVPSRFSGSGSGTDFTLTISSLQPEDFATYYCQQGYIITDIDNVFGTGTKVTVLGTVAAPSVFIFPPSDEQLKSGTASVVCLLNNFYPREAKVQWKVDNALQSGNSQESVTEQDSKDSTYSLSSTLTLSKADYEKHKVYACEVTHQGLSSPVTKSFNRGECGGGGSGGGGSIQMTQSPSSLSASVGDRVTITCQASQSINNVLAWYQQKPGKAPKLLIYRASTLASGVPSRFSGSGSGTDFTLTISSLQPEDFATYYCQSSYGNYGDFGTGTKVTVLGGGGGSGGGGSGGGGSGGGGSQVQLQESGPGLVKPSETLSLTCKVSGFSFSNSYWICWIRQPPGKGLEWIGCTFVGSSDSTYYANWAKGRVTISVDSSKNQFSLKLSSVTAADTAVYYCARHPSDAVYGYANNLWGQGTLVTVSS
heavy: QVQLQESGPGLVKPSETLSLTCKVSGFSFSSGYDMCWIRQPPGKGLEWIGCVVAGSVDITYYASWAKGRVTISVDSSKNQFSLKLSSVTAADTAVYYCARKDAYSDAFNLWGQGTLVTVSSASTKGPSVFPLAPSSKSTSGGTAALGCLVKDYFPEPVTVSWNSGALTSGVHTFPAVLQSSGLYSLSSVVTVPSSSLGTQTYICNVNHKPSNTKVDKRVEPKSCDKTHTCPPCPAPEAAGGPSVFLFPPKPKDTLMISRTPEVTCVVVDVSHEDPEVKFNWYVDGVEVHNAKTKPREEQYNSTYRVVSVLTVLHQDWLNGKEYKCKVSNKALGAPIEKTISKAKGQPREPQVYTLPPSREEMTKNQVSLTCLVKGFYPSDIAVEWESNGQPENNYKTTPPVLDSDGSFFLYSKLTVDKSRWQQGNVFSCSVMHEALHNHYTQKSLSLSPGK
notes: IgG-scFv fusion, scFv on the light chain; also called Morrison-L

max. activation (%), NF-kB reporter gene, CHO-PD-L1; HSA: no [2]: 219% | max. activation (%), NF-kB reporter gene, HCC827 +IFNg; HSA: no [2]: 154% | max. activation (%), NF-kB reporter gene, HCC827 -IFNg; HSA: no [2]: 123% | EC50 in ng/ml, CD137 activation, NFkB-luciferase Jurkat reporter assay, HCC827 cells stimulated with IFNg [6]: 11.9 ng/mL | EC50 in ng/ml, CD137 activation, NFkB-luciferase Jurkat reporter assay, HCC827 cells without IFNg [7]: 16.1 ng/mL | binding result [8]: binds | EC50 in ng/ml, CD137 activation, NFkB-luciferase Jurkat reporter assay, CHO-PD-L1 cells [9]: 5.75 ng/mL
B3: PRO1123: 38-02-A04 sc05 IF scDb-i/33_03_G02 sc01 scDb-o (bispecific antibody)
chain: DIQMTQSPSSLSASVGDRVTITCQASQSINDYLAWYQQKPGKAPKLLIYKASTLASGVPSRFSGSGSGTDFTLTISSLQPEDFATYYCQQGYIITDIDNVFGTGTKVTVLGGGGGSQVQLQESGPGLVKPSETLSLTCKVSGFSFSNSYWICWVRQPPGKGLEWIGCTFVGSSDSTYYANWAKGRVTISVDSSKNQVSLKLSSVTAADTAVYFCARHPSDAVYGYANNLWGQGTLVTVSSGGGGSGGGGSGGGGSGGGGSIQMTQSPSSLSASVGDRVTITCQASQSINNVLAWYQQKPGKPPKLLIYRASTLASGVPSRFSGSGSGTDFTLTISSLQPEDFATYYCQSSYGNYGDFGTGTKVTVLGGGGGSQVQLQESGPGLVKPSETLSLTCKVSGFSFSSGYDMCWIRQPPGKGLEWIGCVVAGSVDITYYASWAKGRVTISVDSSKNQFSLKLSSVTAADTAVYYCARKDAYSDAFNLWGQGTLVTVSS
notes: scDb

max. activation (%), NF-kB reporter gene, CHO-PD-L1; HSA: no [2]: 229% | max. activation (%), NF-kB reporter gene, HCC827 +IFNg; HSA: no [2]: 188% | max. activation (%), NF-kB reporter gene, HCC827 -IFNg; HSA: no [2]: 113% | EC50 in ng/ml, CD137 activation, NFkB-luciferase Jurkat reporter assay, HCC827 cells stimulated with IFNg [6]: 4.83 ng/mL | EC50 in ng/ml, CD137 activation, NFkB-luciferase Jurkat reporter assay, HCC827 cells without IFNg [7]: 5.62 ng/mL | binding result [8]: binds | EC50 in ng/ml, CD137 activation, NFkB-luciferase Jurkat reporter assay, CHO-PD-L1 cells [9]: 3.68 ng/mL
B4: PRO1124: 38-02-A04 sc06 Full scDb-i/33_03_G02 sc01 scDb-o (bispecific antibody)
chain: DIQMTQSPSSLSASVGDRVTITCQASQSINDYLAWYQQKPGKAPKLLIYKASTLASGVPSRFSGSGSGTDFTLTISSLQPEDFATYYCQQGYIITDIDNVFGTGTKVTVLGGGGGSQVQLQESGPGLVKPSETLSLTCKASGFSFSNSYWICWVRQPPGKGLEWIGCTFVGSSDSTYYANWAKGRVTISKDSSKNQVSLKLSSVTAADTAVYFCARHPSDAVYGYANNLWGQGTLVTVSSGGGGSGGGGSGGGGSGGGGSLQMTQSPSSLSASVGDRVTITCQASQSINNVLAWYQQKPGKPPKLLIYRASTLASGVPSRFSGSGSGTDFTLTISSLQPEDFATYYCQSSYGNYGDFGTGTKVTVLGGGGGSQVQLQESGPGLVKPSETLSLTCKVSGFSFSSGYDMCWIRQPPGKGLEWIGCVVAGSVDITYYASWAKGRVTISVDSSKNQFSLKLSSVTAADTAVYYCARKDAYSDAFNLWGQGTLVTVSS
notes: scDb, STR graft of the CD137 domain

EC50 in ng/ml, CD137 activation, NFkB-luciferase Jurkat reporter assay, HCC827 with IFNy stimulation, 24h [10]: 17.5 ng/mL | EC50 in ng/ml, CD137 activation, NFkB-luciferase Jurkat reporter assay, HCC827 without IFNy stimulation, 24h [10]: 13.6 ng/mL | IC50 (ng/ml), neutralization of PD-L1/PD-1 interaction, NFAT-luciferase reporter gene assay [1]: 133 ng/mL | EC50 in ng/ml, CD137 activation, NFkB-luciferase Jurkat reporter assay, PD-L1 expressing CHO cells, 24h [11]: 80.8 ng/mL | EC50 in ng/ml, CD137 activation, NFkB-luciferase Jurkat reporter assay, PD-L1 expressing CHO cells, 6h [12]: 56.4 ng/mL | IC50 [4]: 0.0174 µg/mL | IC50 [5]: 5.67 ng/mL
B5: PRO1060: 33-03-G02 IgG1 HC with 38_02_A04 sc01 scFV, PD-L1/CD137(scFv) silent Morrison (bispecific antibody)
light: DIQMTQSPSSLSASVGDRVTITCQASQSINDYLAWYQQKPGKAPKLLIYKASTLASGVPSRFSGSGSGTDFTLTISSLQPEDFATYYCQQGYIITDIDNVFGTGTKVTVLGTVAAPSVFIFPPSDEQLKSGTASVVCLLNNFYPREAKVQWKVDNALQSGNSQESVTEQDSKDSTYSLSSTLTLSKADYEKHKVYACEVTHQGLSSPVTKSFNRGEC
heavy: QVQLQESGPGLVKPSETLSLTCKVSGFSFSSGYDMCWIRQPPGKGLEWIGCVVAGSVDITYYASWAKGRVTISVDSSKNQFSLKLSSVTAADTAVYYCARKDAYSDAFNLWGQGTLVTVSSASTKGPSVFPLAPSSKSTSGGTAALGCLVKDYFPEPVTVSWNSGALTSGVHTFPAVLQSSGLYSLSSVVTVPSSSLGTQTYICNVNHKPSNTKVDKRVEPKSCDKTHTCPPCPAPEAAGGPSVFLFPPKPKDTLMISRTPEVTCVVVDVSHEDPEVKFNWYVDGVEVHNAKTKPREEQYNSTYRVVSVLTVLHQDWLNGKEYKCKVSNKALGAPIEKTISKAKGQPREPQVYTLPPSREEMTKNQVSLTCLVKGFYPSDIAVEWESNGQPENNYKTTPPVLDSDGSFFLYSKLTVDKSRWQQGNVFSCSVMHEALHNHYTQKSLSLSPGKGGGGSGGGGSIQMTQSPSSLSASVGDRVTITCQASQSINNVLAWYQQKPGKAPKLLIYRASTLASGVPSRFSGSGSGTDFTLTISSLQPEDFATYYCQSSYGNYGDFGTGTKVTVLGGGGGSGGGGSGGGGSGGGGSQVQLQESGPGLVKPSETLSLTCKVSGFSFSNSYWICWIRQPPGKGLEWIGCTFVGSSDSTYYANWAKGRVTISVDSSKNQFSLKLSSVTAADTAVYYCARHPSDAVYGYANNLWGQGTLVTVSS
notes: IgG-scFv fusion, scFv on the heavy chain; also called Morrison-H

IC50 (ng/ml), neutralization of PD-L1/PD-1 interaction, NFAT-luciferase reporter gene assay [1]: 42.9 ng/mL | IC50 [4]: 0.0129 µg/mL | IC50 [5]: 3.4 ng/mL
B6: PRO830 (anti-PD-L1 scFv, CDR set of clone 33-03-G02 grafted on a VH4 framework) (scFv)
chain: DIQMTQSPSSLSASVGDRVTITCQASQSINDYLAWYQQKPGKAPKLLIYKASTLASGVPSRFSGSGSGTDFTLTISSLQPEDFATYYCQQGYIITDIDNVFGTGTKVTVLGGGGGSGGGGSGGGGSGGGGSQVQLQESGPGLVKPSETLSLTCKVSGFSFSSGYDMCWIRQPPGKGLEWIGCVVAGSVDITYYASWAKGRVTISVDSSKNQFSLKLSSVTAADTAVYYCARKDAYSDAFNLWGQGTLVTVSS

IC50 (ng/ml), neutralization of PD-L1/PD-1 interaction, NFAT-luciferase reporter gene assay [1]: 21.3 ng/mL | IC50 [4]: 0.00405 µg/mL | IC50 [5]: 0.57 ng/mL
B7: PRO1013 (anti-PD-L1 scFv, CDR set of clone 37-20-B03 grafted on a VH1 framework) (scFv)
chain: DIQMTQSPSSLSASVGDRVTITCQASQSIGTYLAWYQQKPGKAPKLLIYRAFILASGVPSRFSGSGSGTDFTLTISSLQPEDFATYYCQSNFYSDSTTIGPNAFGTGTKVTVLGGGGGSGGGGSGGGGSGGGGSQVQLVQSGAEVKKPGASVKVSCKASGFSFNSDYWIYWVRQAPGQGLEWMGSIYGGSSGNTQYASWAQGRVTMTRDTSISTAYMELSSLRSEDTAVYYCARGYVDYGGATDLWGQGTLVTVSS
